Measured values published in patent publication US20130071381A1 (Takeda / Millennium, published 2013).
Several values for one entry are separate records, joined by “and”; a condition that tells them apart may be missing. Identical values can stand only once.

Legend:
[1] = biological target: T1, CCR5 expressed on L1/2 transfectants (UniProt P51681 1-352, limits assumed); assay: flow cytometry on L1/2 transfectants, hybridoma supernatant
T1 construct: whole, on cells; also called CCR5 transfectants
T1 sequence (P51681 whole entry): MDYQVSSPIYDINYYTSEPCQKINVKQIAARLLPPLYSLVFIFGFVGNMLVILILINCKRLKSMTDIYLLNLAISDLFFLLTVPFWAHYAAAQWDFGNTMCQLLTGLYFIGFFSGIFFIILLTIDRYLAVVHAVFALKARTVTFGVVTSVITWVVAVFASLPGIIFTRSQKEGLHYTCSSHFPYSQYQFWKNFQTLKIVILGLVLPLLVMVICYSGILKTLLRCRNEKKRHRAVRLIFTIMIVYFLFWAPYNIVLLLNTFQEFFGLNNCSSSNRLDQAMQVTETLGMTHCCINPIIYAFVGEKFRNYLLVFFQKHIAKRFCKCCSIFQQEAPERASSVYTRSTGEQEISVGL
Protocol: (§1) For the staining of cultured transfectant cell lines 0.5×10⁶ cells in 50 μl were resuspended in PBS+1% FCS in a 96 well polystyrene V-bottom plate. 50 μl of primary antibody supernatants or HT medium (negative control) were added, and the samples were incubated at 4° C. for 30 min. 100 μl of PBS were added and the cells were pelleted by centrifugation and washed once with PBS. The pellet was resuspended in 100 μl PBS+1% FCS containing FITC-conjugated goat anti-mouse IgG antibody (a 1:250 dilution) and incubated for thirty minutes at […] in the dark. The cells were washed twice with PBS, resuspended in PBS, and analyzed by flow cytometry with a FacScan cytometer using the CellQuest software (Becton-Dickenson) Cells were fixed with PBS/1% formaldehyde if they were not to be analyzed the same day. Monoclonal antibodies 1D9 and 8G2 stain CCR2 transfectants but not CCR1 or CCR5 transfectants (FIGS. 1A-10).

[2] = biological target: T2, CCR1 expressed on L1/2 transfectants (UniProt P32246 1-355, limits assumed); assay: as above
T2 construct: whole, on cells; also called CCR1 transfectants
T2 sequence (looked up): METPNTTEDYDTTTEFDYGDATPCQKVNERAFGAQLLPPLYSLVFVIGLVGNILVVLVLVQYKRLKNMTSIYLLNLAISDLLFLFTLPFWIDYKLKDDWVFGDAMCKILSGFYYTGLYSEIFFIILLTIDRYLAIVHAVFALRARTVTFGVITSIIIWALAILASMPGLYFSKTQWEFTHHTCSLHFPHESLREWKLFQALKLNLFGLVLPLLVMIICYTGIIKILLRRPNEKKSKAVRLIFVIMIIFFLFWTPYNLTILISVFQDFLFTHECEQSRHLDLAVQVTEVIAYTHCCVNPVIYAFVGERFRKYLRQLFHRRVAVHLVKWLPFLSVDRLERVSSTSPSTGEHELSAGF
Protocol: as §1

[3] = biological target: T3, human CC-chemokine receptor 2 (CCR2), endogenous on THP-1 cells, THP-1 membranes and human blood cells (human, UniProt P41597 1-374); assay: competition with 0.1 nM [125I]MCP-1 on fresh PBMC, filtration and scintillation counting
T3 construct: whole, on cells; The isoform is not specified for THP-1 cells or PBMC; also called CKR-2; MCP-1RA
T3 sequence (P41597 whole entry, canonical isoform): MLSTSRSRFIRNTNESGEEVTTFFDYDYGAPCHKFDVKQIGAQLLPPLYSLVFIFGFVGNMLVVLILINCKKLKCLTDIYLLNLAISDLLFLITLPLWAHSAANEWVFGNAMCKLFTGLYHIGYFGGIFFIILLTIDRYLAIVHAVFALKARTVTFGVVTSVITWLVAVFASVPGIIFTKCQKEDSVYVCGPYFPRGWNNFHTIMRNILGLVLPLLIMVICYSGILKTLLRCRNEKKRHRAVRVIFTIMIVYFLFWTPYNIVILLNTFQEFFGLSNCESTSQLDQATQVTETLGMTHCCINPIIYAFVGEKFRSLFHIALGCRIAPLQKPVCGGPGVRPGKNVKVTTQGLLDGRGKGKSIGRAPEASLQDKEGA
Protocol: (§2) MCP-1 binding was performed in a final volume of 0.1 ml of 50 mM Hepes pH 7.4, 1 mM CaCl₂, 5 mM MgCl₂, 0.02% sodium azide, 0.5% BSA (HBB), containing either 2.5 μg THP-1 membrane protein or 500,000 PBMC and 0.1 nM of [¹²⁵I]-MCP-1. Competition binding experiments were performed by including variable concentrations of unlabeled MCP-1, 1D9 antibody, or a negative control IgG2a. Nonspecific binding was determined following the addition of a 2500-fold excess of unlabeled MCP-1. Samples were incubated for 60 minutes at room temperature, and bound and free tracer were separated by filtration through 96-well GF/B filterplates presoaked in 0.3% polyethyleneimine. The filters were washed in HBB further supplemented with 0.5 M NaCl, dried, and the amount of bound radioactivity determined by liquid scintillation counting. mAb 1D9 inhibits [¹²⁵I]MCP-1 binding to THP-1 cell membranes with an IC₅₀ of about 0.004 μg/ml (approximately 0.02 nM; FIG. 4) and to fresh PBMC with an IC₅₀ of 0.04 μg/ml (approximately 0.2 nM; FIG. 5).

[4] = biological target: T3, human CC-chemokine receptor 2 (CCR2), …; assay: competition with 0.1 nM [125I]MCP-1 on THP-1 cell membranes, filtration and scintillation counting
Protocol: FIG. 4 illustrates that mAb 1D9 inhibits [¹²⁵I]MCP-1 binding to THP-1 cell membranes. 3.0 μg of THP-1 membrane protein was incubated with 0.1 nM [¹²⁵I]MCP-1 in the presence of various concentrations of 1D9 or the isotype-matched anti-CXCR3 antibody 1C6. The amount of bound tracer was determined by separation of free from bound by filtration and scintillation counting. The data was analyzed to determine the IC₅₀ value by non-linear regression using a 4-parameter logistic equation with KaleidaGraph software.
as §2, with “Samples were incubated for 60 minutes at room temperature, and bound and free tracer were separated by filtration through 96-well GF/B filterplates presoaked in 0.3% polyethyleneimine.” left out

binding result [1]: no binding
binding result [2]: no binding
IC50 [3]: 0.04 µg/mL and ~0.2 nM
IC50 [4]: ~0.004 µg/mL and ~0.02 nM
B1: murine monoclonal antibody LS132.1D9 (antibody, V domains shown)
VH: EVQLVESGGGLVQPKGSLKLSCAASGFSFNAYAMNWVRQAPGKGLEWVARIRTKNNNYATYYADSVKDRYTISRDDSESMLFLQMNNLKTEDTAMYYCVTFYGNGVWGTGTTVTVSS
VL: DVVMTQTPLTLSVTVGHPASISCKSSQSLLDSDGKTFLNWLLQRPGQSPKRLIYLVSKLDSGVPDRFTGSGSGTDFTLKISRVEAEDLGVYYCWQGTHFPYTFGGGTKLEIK
notes: Whole murine monoclonal antibody from hybridoma ATCC HB-12549, with a kappa light chain; The controls are called isotype-matched or murine IgG2a, which implies IgG2a; It was used as hybridoma supernatant in the FACS staining; also called mAb 1D9; mus-1D9
